Measurements reported in the supplement of paper PMC6757056.
± gives the standard deviation of the averaged measurements.

B1: library; a variant is named by its letters at N, in order (parent)
chain: GCUGUCACCGGUGUAUUACCCUAGUGGUCGACCGGUCUGAUGAGUCUNNNNNNAGACGAAACAGC

What was measured:
hypoxanthine [1] = variants of: B1; test: normalized RNA/DNA level with ligand (relative to sTRSVctl = 100) (log10 (% of sTRSVctl)); ligand: hypoxanthine (xanthine aptamer); higher = less ribozyme self-cleavage, higher mRNA level; settings: ligand concentration (+) RNA-Seq: 5 mM, HEK293T, reporter: mCherry (pCS4076), ligand present: yes
Summary of the method: (§1)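 Ribozyme switch library plasmids linked to reporters were introduced into HEK293T cells at 4 µg per 6-well well, with ligand, if any, added 1 h before. Total RNA was extracted with EDTA 72 h later, reverse-transcribed, amplified, barcoded and sequenced. RNA level was computed from RNA over DNA reads relative to a spiked-in non-cleaving sequence or the top sequences, then scaled and log-transformed. The top set was 25 sequences, values were ×100 and log10, and the cutoff was ≥100 DNA reads.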

hypoxanthine [2] = variants of: B1; test: normalized RNA/DNA level without ligand (relative to sTRSVctl = 100) (log10 (% of sTRSVctl)); ligand: hypoxanthine (xanthine aptamer); higher = less ribozyme self-cleavage, higher mRNA level; settings: HEK293T, reporter: mCherry (pCS4076), ligand present: no
Summary of the method: as §1

hypoxanthine [3] = variants of: B1; test: FACS-Seq fitted mean relative fluorescence mCherry/BFP without ligand (log10 relative fluorescence); ligand: hypoxanthine (xanthine aptamer); higher = higher reporter protein expression; settings: HEK293T, ligand present: no
Summary of the method: (§2)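 Fluorescence is reported as a normalized fitted mean of sorted-bin read counts. Lentivirally transduced HEK293T libraries (mCherry ribozyme-switch reporter, EF1α-BFP marker) were enriched, treated with or without ligand for 48 h, and sorted into 6 mCherry/BFP bins for MiSeq sequencing of PCR-amplified genomic DNA. The normal fit was on log10(mCherry/BFP), scaled to five spiked-in control ribozymes.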

hypoxanthine [4] = variants of: B1; test: FACS-Seq fitted mean relative fluorescence mCherry/BFP with ligand (log10 relative fluorescence); ligand: hypoxanthine (xanthine aptamer); ligand concentration (+) FACS-Seq: 5 mM; higher = higher reporter protein expression; settings: HEK293T, ligand present: yes
Summary of the method: as §2

Variant	normalized RNA/DNA level with ligand (log10) (hypoxanthine [1])	normalized RNA/DNA level without ligand (log10) (hypoxanthine [2])	FACS-Seq fitted mean (log10) (hypoxanthine [3])	FACS-Seq fitted mean (log10) (hypoxanthine [4])
UAAGUA	1.89 ± 0.041	1.8797 ± 0.00095	–	–
UAAGUC	1.932 ± 0.0068	1.925 ± 0.016	–	–
UAAGUU	1.97 ± 0.025	1.83 ± 0.02	–	–
AUUCCU	1.922 ± 0.0034	1.89 ± 0.064	0.507 ± 0.036	0.567 ± 0.011
AUUCCG	1.93 ± 0.021	1.589 ± 0.013	0.126 ± 0.023	0.296 ± 0.031
CUUGCU	2 ± 0.018	1.94 ± 0.097	0.359 ± 0.037	0.458 ± 0.056
CUUGCA	2.01 ± 0.023	1.87 ± 0.041	0.834 ± 0.021	0.882 ± 0.079
AAACUC	1.95 ± 0.035	1.95 ± 0.021	–	–
AAACUA	1.89 ± 0.043	1.7704 ± 0.0017	–	–
CAACGU	1.963 ± 0.0077	1.89 ± 0.025	–	–
CAACGG	1.85 ± 0.08	1.42 ± 0.043	–	–
GUUGCA	1.918 ± 0.017	1.81 ± 0.021	0.818 ± 0.056	0.698 ± 0.011
UUGUGG	2.01 ± 0.025	1.89 ± 0.0069	0.447 ± 0.013	0.511 ± 0.067
CUUUCA	1.918 ± 0.0052	1.89 ± 0.041	0.608 ± 0.077	0.565 ± 0.017
AAAUAC	1.89 ± 0.026	1.77 ± 0.048	–	–
AUUCGG	1.87 ± 0.021	1.46 ± 0.024	0.175 ± 0.028	0.625 ± 0.014
AUUACG	1.84 ± 0.066	1.397 ± 0.00039	0.368 ± 0.015	0.626 ± 0.068
AUUACA	1.91 ± 0.033	1.776 ± 0.0047	0.157 ± 0.076	0.407 ± 0.0063
GUUAGA	1.905 ± 0.0029	1.694 ± 0.0036	0.572 ± 0.13	0.619 ± 0.075
GUUAGG	1.8 ± 0.045	1.38 ± 0.033	0.451 ± 0.026	0.648 ± 0.03
GUUUAG	1.81 ± 0.023	1.464 ± 0.013	0.256 ± 0.013	0.65 ± 0.013
GUUUAA	1.917 ± 0.0057	1.83 ± 0.03	0.00874 ± 0.0085	0.204 ± 0.078

Variant	normalized RNA/DNA level with ligand (log10) (hypoxanthine [1])	normalized RNA/DNA level without ligand (log10) (hypoxanthine [2])	FACS-Seq fitted mean (log10) (hypoxanthine [3])	FACS-Seq fitted mean (log10) (hypoxanthine [4])
AAAAGC	1.9 ± 0.027	1.77 ± 0.042	–	–
AUUGGG	1.87 ± 0.085	1.36 ± 0.03	0.0996 ± 0.0053	0.592 ± 0.018
AUUGGU	1.89 ± 0.048	1.66 ± 0.084	0.357 ± 0.04	0.601 ± 0.029
AUUGGA	1.944 ± 0.0073	1.647 ± 0.013	0.196 ± 0.12	0.374 ± 0.042
CUGUUA	1.95 ± 0.057	1.66 ± 0.027	0.263 ± 0.085	0.493 ± 0.053
GUGUGA	1.905 ± 0.0085	1.58 ± 0.026	0.33 ± 0.037	0.67 ± 0.024
GUGUGU	1.894 ± 0.0042	1.64 ± 0.023	0.3521 ± 0.0033	0.466 ± 0.13
GUGUGC	1.801 ± 0.013	1.36 ± 0.089	0.169 ± 0.0029	0.597 ± 0.033
GUGUGG	1.807 ± 0.0054	1.27 ± 0.025	0.0226 ± 0.011	0.5793 ± 0.0024
CAAGGA	1.912 ± 0.012	1.79 ± 0.044	–	–
CAAGGG	1.72 ± 0.036	1.28 ± 0.043	–	–
UAAAGA	1.891 ± 0.0053	1.57 ± 0.021	–	–
CUUUAU	1.88 ± 0.098	1.78 ± 0.028	0.0718 ± 0.034	0.344 ± 0.07
CUUUAG	2.02 ± 0.036	1.808 ± 0.017	0.52 ± 0.017	0.386 ± 0.085
UAAGGC	1.945 ± 0.0051	1.839 ± 0.0074	–	–
GAAGAU	1.94 ± 0.035	1.8 ± 0.075	–	–
UAACCU	1.983 ± 0.011	1.91 ± 0.04	–	–
UAACCA	1.941 ± 0.018	1.89 ± 0.042	–	–
CUUCGA	2.01 ± 0.04	1.876 ± 0.012	-0.0248 ± 0.11	0.346 ± 0.059
UAACUU	1.97 ± 0.0029	1.899 ± 0.0086	–	–
UAACUC	2.009 ± 0.013	1.97 ± 0.04	–	–
AAAGUC	1.98 ± 0.07	1.919 ± 0.0031	–	–

Variant	normalized RNA/DNA level with ligand (log10) (hypoxanthine [1])	normalized RNA/DNA level without ligand (log10) (hypoxanthine [2])	FACS-Seq fitted mean (log10) (hypoxanthine [3])	FACS-Seq fitted mean (log10) (hypoxanthine [4])
AUUAGA	1.895 ± 0.013	1.71 ± 0.028	0.629 ± 0.042	0.69 ± 0.04
AUUAGG	1.81 ± 0.045	1.31 ± 0.021	0.0666 ± 0.043	0.477 ± 0.051
AUUAGC	1.92 ± 0.037	1.77 ± 0.029	0.269 ± 0.031	0.487 ± 0.023
AAAGCC	1.94 ± 0.04	1.817 ± 0.0038	–	–
CUUAUA	1.92 ± 0.037	1.792 ± 0.014	0.669 ± 0.043	0.696 ± 0.063
AUUAAU	1.89 ± 0.023	1.774 ± 0.0011	0.51 ± 0.075	0.566 ± 0.024
AUUAAA	1.89 ± 0.045	1.78 ± 0.021	0.84 ± 0.0057	0.732 ± 0.092
AUUAAG	1.86 ± 0.028	1.48 ± 0.056	0.351 ± 0.019	0.65 ± 0.069
CUGUGG	1.91 ± 0.027	1.45 ± 0.089	0.575 ± 0.018	0.842 ± 0.073
AUGUGU	1.86 ± 0.02	1.53 ± 0.059	-0.337 ± 0.023	0.155 ± 0.022
AUGUGA	1.849 ± 0.0086	1.56 ± 0.1	0.242 ± 0.018	0.68 ± 0.028
AUGUGG	1.756 ± 0.0083	1.27 ± 0.11	-0.193 ± 0.082	-0.0634 ± 0.1
CAAAUG	1.913 ± 0.011	1.82 ± 0.041	–	–
CAAAUU	1.95 ± 0.029	1.806 ± 0.014	–	–
CAAGUU	1.93 ± 0.021	1.939 ± 0.0037	–	–
CAAGUA	1.89 ± 0.054	1.779 ± 0.011	–	–
CAAGUG	1.92 ± 0.026	1.81 ± 0.042	–	–
CAAUAU	1.929 ± 0.016	1.811 ± 0.01	–	–
CAAUAG	1.905 ± 0.0064	1.69 ± 0.03	–	–
UAAACG	1.9 ± 0.087	1.71 ± 0.036	–	–
UAAACA	1.913 ± 0.017	1.875 ± 0.015	–	–
UAAACU	1.94 ± 0.039	1.87 ± 0.034	–	–

Variant	normalized RNA/DNA level with ligand (log10) (hypoxanthine [1])	normalized RNA/DNA level without ligand (log10) (hypoxanthine [2])	FACS-Seq fitted mean (log10) (hypoxanthine [3])	FACS-Seq fitted mean (log10) (hypoxanthine [4])
UAAACC	1.955 ± 0.016	1.91 ± 0.0052	–	–
UUUGAG	1.88 ± 0.027	1.54 ± 0.021	0.198 ± 0.18	0.502 ± 0.067
UUUGAA	1.9 ± 0.041	1.75 ± 0.036	0.522 ± 0.076	0.351 ± 0.04
CUUACC	1.91 ± 0.046	1.907 ± 0.0033	0.555 ± 0.022	0.393 ± 0.022
UUUAGG	1.9004 ± 0.0014	1.83 ± 0.0068	0.0978 ± 0.0074	0.462 ± 0.026
UUUAGC	1.95 ± 0.061	1.88 ± 0.037	0.28 ± 0.015	0.555 ± 0.04
UUUAGU	1.93 ± 0.043	1.83 ± 0.064	0.632 ± 0.16	0.638 ± 0.11
UAAUAC	1.929 ± 0.013	1.79 ± 0.026	–	–
UUUUAU	1.96 ± 0.018	1.85 ± 0.06	0.589 ± 0.097	0.296 ± 0.011
UUUAAU	1.918 ± 0.01	1.856 ± 0.0057	0.485 ± 0.013	0.421 ± 0.053
UUUAAC	2 ± 0.04	1.86 ± 0.021	0.697 ± 0.045	0.716 ± 0.07
GAAGCC	1.948 ± 0.016	1.85 ± 0.041	–	–
GAAGCU	1.982 ± 0.015	1.84 ± 0.031	–	–
CAACUG	1.9 ± 0.045	1.84 ± 0.022	–	–
CAACUC	1.97 ± 0.028	1.96 ± 0.032	–	–
GAAAUC	1.97 ± 0.022	1.88 ± 0.078	–	–
GAAAUU	1.95 ± 0.046	1.87 ± 0.039	–	–
AUGUUG	1.85 ± 0.024	1.44 ± 0.075	0.146 ± 0.039	0.386 ± 0.071
AUGUUU	1.95 ± 0.055	1.85 ± 0.03	0.564 ± 0.028	0.43 ± 0.049
GUUCAA	1.89 ± 0.075	1.79 ± 0.042	0.0385 ± 0.025	0.294 ± 0.0042
